From article PMC11353897, “Biochemical and structural elucidation of the L-carnitine degradation pathway of the human pathogen Acinetobacter baumannii” (Frontiers in Microbiology, 2024)

Tests used:
[1] = target: T1, carnitine monooxygenase oxygenase component CntA (Acinetobacter baumannii, UniProt D0C9N6); experiment: MBTH aldehyde formation assay and L-carnitine depletion assay (specific activity); type: biochemical
T1 construct: CntA after on-column cleavage of GST tag; with CntB (reductase)

[2] = target: T2, malic semialdehyde dehydrogenase (MSA-DH) (Acinetobacter baumannii, UniProt D0C9N7); experiment: MSA depletion (MBTH) and NADH formation assays with […] NAD+; type: biochemical
T2 construct: gene HMPREF0010_01350; N-terminal His-thioredoxin fusion, tetramer
T2 sequence (D0C9N7 1-483): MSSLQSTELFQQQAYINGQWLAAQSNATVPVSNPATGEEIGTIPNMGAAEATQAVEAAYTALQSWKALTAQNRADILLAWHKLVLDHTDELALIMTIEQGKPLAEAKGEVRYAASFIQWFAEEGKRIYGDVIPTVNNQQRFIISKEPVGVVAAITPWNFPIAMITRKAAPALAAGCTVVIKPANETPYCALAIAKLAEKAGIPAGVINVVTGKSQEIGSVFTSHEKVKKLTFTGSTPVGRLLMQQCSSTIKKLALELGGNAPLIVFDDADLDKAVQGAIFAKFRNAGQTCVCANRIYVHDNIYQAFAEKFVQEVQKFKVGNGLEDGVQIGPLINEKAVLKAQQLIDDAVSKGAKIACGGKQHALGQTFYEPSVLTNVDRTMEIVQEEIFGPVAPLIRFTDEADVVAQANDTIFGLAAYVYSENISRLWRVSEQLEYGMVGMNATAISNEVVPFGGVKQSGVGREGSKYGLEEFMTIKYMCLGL

[3] = target: T3, D-malate dehydrogenase (MDH) (Acinetobacter baumannii, UniProt A0ABX6CCN1); experiment: spectroscopic NADH formation assay ([…] nm) with D-malate, varied inhibitor concentrations; type: biochemical
T3 construct: gene dmlA; N-terminal His-tag fusion, tetramer
T3 sequence (A0ABX6CCN1 1-370): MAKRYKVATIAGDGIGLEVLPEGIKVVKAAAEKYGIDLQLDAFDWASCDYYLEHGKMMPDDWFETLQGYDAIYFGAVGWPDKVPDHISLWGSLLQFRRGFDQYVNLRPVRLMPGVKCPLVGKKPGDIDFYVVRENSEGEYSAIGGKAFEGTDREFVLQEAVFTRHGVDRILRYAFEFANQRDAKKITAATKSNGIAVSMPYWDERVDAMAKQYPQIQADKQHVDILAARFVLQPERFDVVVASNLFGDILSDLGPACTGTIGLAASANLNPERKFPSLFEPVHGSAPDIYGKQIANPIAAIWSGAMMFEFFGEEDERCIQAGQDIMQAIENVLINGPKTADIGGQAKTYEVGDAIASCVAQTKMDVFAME

[4] = target: T1, carnitine monooxygenase oxygenase component CntA; experiment: MBTH aldehyde formation assay (specific activity); type: biochemical
[5] = target: D-malate dehydrogenase (MDH) from A. baumannii, N-terminal His-tag fusion (Acinetobacter baumannii ATCC 19606); experiment: mass photometry; Refeyn TwoMP, 25 nM protein in PBS, 60 s movies, calibrated against NativeMark standard
[6] = target: malic semialdehyde dehydrogenase (MSA-DH) from A. baumannii, N-terminal His-thioredoxin fusion (Acinetobacter baumannii ATCC 19606); experiment: as above
[7] = target: malic semialdehyde dehydrogenase (MSA-DH) from A. baumannii, N-terminal His-thioredoxin fusion (Acinetobacter baumannii ATCC 19606); experiment: crystal structure; X-ray, 2.6 A, space group P212121, 12 chains (three tetramers) in the asymmetric unit; protein at 40 mg/mL supplemented with 7 mM D-malate
[8] = target: malic semialdehyde dehydrogenase (MSA-DH) from A. baumannii, N-terminal His-thioredoxin fusion (Acinetobacter baumannii ATCC 19606); experiment: SEC; analytical size exclusion chromatography, Superdex 200 increase 5/150 GL, 20 mM HEPES-NaOH pH 7.5, 150 mM NaCl, 0.45 mL/min, 50 uL of 3 mg/mL protein injected, calibrated with protein standards
purified protein [9] = substrate: O=C[C@H](O)CC(=O)O; experiment: purified protein; type: biochemical, Acinetobacter baumannii; conditions: NAD+ or NADP+ proposed from model: Arg166, Arg284, Ser447 bind the carboxylate; catalytic Cys290 (covalent hemithioacetal intermediate) and Glu256
purified protein [10] = substrate: O=C(O)C[C@@H](O)C(=O)O; experiment: purified protein; type: biochemical, Acinetobacter baumannii; conditions: NAD+; Mg2+ or Mn2+

C[N+](C)(C)C[C@H](O)CC(=O)[O-] [L-carnitine]
MBTH aldehyde formation assay and L-carnitine depletion assay (specific activity) [1]: 2.8 ± 0.2 µmol/min/mg

NC(=O)c1ccc[n+]([C@@H]2O[C@H](COP(=O)([O-])OP(=O)(O)OC[C@H]3O[C@@H](n4cnc5c(N)ncnc54)[C@H](O)[C@@H]3O)[C@@H](O)[C@H]2O)c1 [NAD^+]
MSA depletion (MBTH) and NADH formation assays with 2 mM NAD+ [2]: MSA-DH can use NAD^+ or NADP^+ as a cofactor for the oxidation of the MSA substrate

O=C(O)C(O)C(O)C(=O)O (stereo not drawn) [meso-tartrate]
Ki [3]: 320 ± 80 µM

C[N+](C)(C)CCCC(=O)[O-] [γ-butyrobetaine]
MBTH aldehyde formation assay (specific activity) [4]: 2.1 ± 0.2 µmol/min/mg

D-malate dehydrogenase (MDH) from A. baumannii, N-terminal His-tag fusion (enzyme)
stoichiometry N [5]: 4

malic semialdehyde dehydrogenase (MSA-DH) from A. baumannii, N-terminal His-thioredoxin fusion (enzyme)
stoichiometry N [6]: 4 | stoichiometry N [7]: 4 | stoichiometry N [8]: 4

B1: malic semialdehyde dehydrogenase (MSA-DH) (Acinetobacter baumannii ATCC 19606 = CIP 70.34 = JCM 6841) (protein)
chain: MSSLQSTELFQQQAYINGQWLAAQSNATVPVSNPATGEEIGTIPNMGAAEATQAVEAAYTALQSWKALTAQNRADILLAWHKLVLDHTDELALIMTIEQGKPLAEAKGEVRYAASFIQWFAEEGKRIYGDVIPTVNNQQRFIISKEPVGVVAAITPWNFPIAMITRKAAPALAAGCTVVIKPANETPYCALAIAKLAEKAGIPAGVINVVTGKSQEIGSVFTSHEKVKKLTFTGSTPVGRLLMQQCSSTIKKLALELGGNAPLIVFDDADLDKAVQGAIFAKFRNAGQTCVCANRIYVHDNIYQAFAEKFVQEVQKFKVGNGLEDGVQIGPLINEKAVLKAQQLIDDAVSKGAKIACGGKQHALGQTFYEPSVLTNVDRTMEIVQEEIFGPVAPLIRFTDEADVVAQANDTIFGLAAYVYSENISRLWRVSEQLEYGMVGMNATAISNEVVPFGGVKQSGVGREGSKYGLEEFMTIKYMCLGL
notes: N-terminal His-thioredoxin fusion, tetramer
Km (purified protein [9]): 2600 ± 140 µM

B2: D-malate dehydrogenase (MDH) (Acinetobacter baumannii ATCC 19606 = CIP 70.34 = JCM 6841) (protein)
chain: MAKRYKVATIAGDGIGLEVLPEGIKVVKAAAEKYGIDLQLDAFDWASCDYYLEHGKMMPDDWFETLQGYDAIYFGAVGWPDKVPDHISLWGSLLQFRRGFDQYVNLRPVRLMPGVKCPLVGKKPGDIDFYVVRENSEGEYSAIGGKAFEGTDREFVLQEAVFTRHGVDRILRYAFEFANQRDAKKITAATKSNGIAVSMPYWDERVDAMAKQYPQIQADKQHVDILAARFVLQPERFDVVVASNLFGDILSDLGPACTGTIGLAASANLNPERKFPSLFEPVHGSAPDIYGKQIANPIAAIWSGAMMFEFFGEEDERCIQAGQDIMQAIENVLINGPKTADIGGQAKTYEVGDAIASCVAQTKMDVFAME
notes: N-terminal His-tag fusion, tetramer
Km (purified protein [10]): 2100 ± 200 µM
